Assay [1] has as its target GST-Ragulator pre-incubated with GFP-tagged active-loaded Rag heterodimers (UniProt Q6IAA8). Nature of the assay: single-molecule imaging on beads.
The target of assay [2] is stable Ragulator-VhH + GFP-Rag complexes (UniProt Q9Y2Q5). Nature of the assay: single-molecule imaging on beads.
UniProt Q9Y2Q5, sequence (Q9Y2Q5 whole entry, looked up, one chain of several): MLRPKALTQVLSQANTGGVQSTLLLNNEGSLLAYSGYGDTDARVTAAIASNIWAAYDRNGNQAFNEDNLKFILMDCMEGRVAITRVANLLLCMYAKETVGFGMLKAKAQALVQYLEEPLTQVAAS

Take “Raptor-Halo^TMR (co-purified with mTOR and mLST8) (from UniProt Q8N122;P42345;Q9BVC4) (complex)”: the residence time (photobleaching-corrected half-life, t1/2) in assay [1] is 3.1 s; in assay [2] it was 13.2 s.

The values above are taken from article PMC6279252.
